# Results published in paper PMC3592866.
# Where “and” joins values, the source holds several entries; their conditions need not be identical. Equal values may be shown once.
# Key:
# [1] = target: pXqua MltBP-QUA1-C59S fusion protein (Xenopus laevis); test: SEC; analytical Superdex-200 PC 3.2/30 of MltBP-QUA1 fusion proteins; 20 mM Tris-HCl pH 7.9, 150 mM NaCl, 0.05% sodium azide; 50 uL at 1 mg/mL loaded; apparent aggregation numbers from calibration; monomer to dimer
# [2] = target: pXqua MltBP-QUA1-C59S/R67A/E72G fusion protein (Xenopus laevis); test: as above
# [3] = target: pXqua MltBP-QUA1-C59S/R67A fusion protein (Xenopus laevis); test: as above
# [4] = target: pXqua QUA1-C59S (protease-liberated peptide) (Xenopus laevis); test: AUC; sedimentation equilibrium of released QUA1-C59S, global single species fits; monomer to dimer
# [5] = target: pXqua MltBP-QUA1-C59S/R67E/E72R fusion protein (Xenopus laevis); test: SEC; analytical Superdex-200 PC 3.2/30 of MltBP-QUA1 fusion proteins; 20 mM Tris-HCl pH 7.9, 150 mM NaCl, 0.05% sodium azide; 50 uL at 1 mg/mL loaded; apparent aggregation numbers from calibration; monomer to dimer
# [6] = target: wild type pXqua MltBP-QUA1 fusion protein (Xenopus laevis); test: as above
substance,measurement,setting,value
pXqua MltBP-QUA1-C59S fusion protein (domain or fragment),AAN (apparent aggregation number),[1],2.7
same,stoichiometry N,[1],2
pXqua MltBP-QUA1-C59S/R67A/E72G fusion protein (domain or fragment),fraction eluting in the dimer peak,[2],0.33
pXqua MltBP-QUA1-C59S/R67A fusion protein (domain or fragment),AAN (apparent aggregation number),[3],1.7
same,percent of species in the dimeric state,[3],40%
pXqua QUA1-C59S (protease-liberated peptide) (domain or fragment),stoichiometry N,[4],2
pXqua MltBP-QUA1-C59S/R67E/E72R fusion protein (domain or fragment),AAN (apparent aggregation number),[5],2.1
same,percent of species in the dimeric state,[5],70%
wild type pXqua MltBP-QUA1 fusion protein (domain or fragment),stoichiometry N,[6],4 and 2
